From patent publication US20200190213A1 (REVITOPE, published 2020)

T1: Recombinant soluble EpCAM-His6 protein (UniProt P16422 24-265)
T1 construct: Coated on ELISA plates at 5 ug/ml; also called target antigen; not shown: His6 tag
T1 sequence (looked up): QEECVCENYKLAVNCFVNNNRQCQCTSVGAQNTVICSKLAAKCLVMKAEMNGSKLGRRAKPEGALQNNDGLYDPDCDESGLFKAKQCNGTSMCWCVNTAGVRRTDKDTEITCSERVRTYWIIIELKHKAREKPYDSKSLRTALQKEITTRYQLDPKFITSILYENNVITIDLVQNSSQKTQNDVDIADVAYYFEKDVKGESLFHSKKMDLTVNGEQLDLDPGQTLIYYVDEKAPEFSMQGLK

T2: Recombinant soluble EpCAM-His6 protein (UniProt P16422 24-265)
T2 chain: T1 sequence (looked up)

B1: TWICE278 (other)
heavy: EVQLLEQSGAELVRPGTSVKISCKASGYAFTNYWLGWVKQRPGHGLEWIGDIFPGSGNIHYNEKFKGKATLTADKSSSTAYMQLSSLTFEDSAVYFCARLRNWDEPMDYWGQGTTVTVSSASTKGPSVFPLAPSSKSTSGGTAALGCLVKDYFPEPVTVSWNSGALTSGVHTFPAVLQSSGLYSLSSVVTVPSSSLGTQTYICNVNHKPSNTKVDKKVEPKSCDKTHTGGGGSGGGGSQVQLVESGGGVVQPGRSLRLSCAASGFTFSSYTMHWVRQAPGKGLEWVTFISYDGNNKYYADSVKGRFTISRDNSKNTLYLQMNSLRAEDTAIYYCARTGWLGPFDYWGQGTLVTVSSGGGIEGRGGGDKTHTCPPCPAPELLGGPSVFLFPPKPKDTLMISRTPEVTCVVVDVSHEDPEVKFNWYVDGVEVHNAKTKPREEQYQSTYRVVSVLTVLHQDWLNGKEYKCKVSNKALPAPIEKTISKAKGQPREPQVYTLPPSRDELTKNQVKLTCLVKGFYPSDIAVEWESNGQPENNYKTTPPVLDSDGSFFLYSLLTVDKSRWQQGNVFSCSVMHEALHNHYTQKSLSLSPG
light: ELVMTQSPSSLTVTAGEKVTMSCKSSQSLLNSGNQKNYLTWYQQKPGQPPKLLIYWASTRESGVPDRFTGSGSGTDFTLTISSVQAEDLAVYYCQNDYSYPLTFGAGTKLEIKRTVAAPSVFIFPPSDEQLKSGTASVVCLLNNFYPREAKVQWKVDNALQSGNSQESVTEQDSKDSTYSLSSTLTLSKADYEKHKVYACEVTHQGLSSPVTKSFNRGECGGGGSGGGGSGGGGSQAVVTQEPSLTVSPGGTVTLTCRSSTGAVTASNYANWVQQKPGQAPRGLIGGTNKRAPWTPARFSGSLLGGKAALTITGAQAEDEADYYCALWYSNLWVFGGGTKLTVLGGGIEGRGGGDKTHTCPPCPAPELLGGPSVFLFPPKPKDTLMISRTPEVTCVVVDVSHEDPEVKFNWYVDGVEVHNAKTKPREEQYQSTYRVVSVLTVLHQDWLNGKEYKCKVSNKALPAPIEKTISKAKGQPREPQVYTLPPSRDELTKNQVSLTCLVSGFYPSDIAVEWESNGQPENNYKTTPPVLDSDGSFKLYSKLTVDKSRWQQGNVFSCSVMHEALHNHYTQKSLSLSPG
notes: One TWICE component: anti-EpCAM (Solitomab) Fab, Ipilimumab VH, SP34 VL, FXa-cleavable linkers, hetero-Fc; Uncleaved in the EpCAM ELISA; In the bridging ELISA it was tested alone, also after FXa cleavage; also called Ipilimumab VH SP34 VL Fc
B2: CD3 Fc-fusion protein (murine IgG2a Fc) (Fc fusion)
chain: DGNEEMGGITQTPYKVSISGTTVILTCPQYPGSEILWQHNDKNIGGDEDDKNIGSDEDHLSLKEFSELEQSGYYVCYPRGSKPEDANFYLYLRARVCENCMEMD
notes: Soluble antigen of the bridging ELISA; not shown: murine IgG2a Fc
B3: TWICE335 (other)
heavy: EVQLLEQSGAELVRPGTSVKISCKASGYAFTNYWLGWVKQRPGHCLEWIGDIFPGSGNIHYNEKFKGKATLTADKSSSTAYMQLSSLTFEDSAVYFCARLRNWDEPMDYWGQGTTVTVSSGGGSGGGGSQVQLVESGGGVVQPGRSLRLSCAASGFTFSSYTMHWVRQAPGKGLEWVTFISYDGNNKYYADSVKGRFTISRDNSKNTLYLQMNSLRAEDTAIYYCARTGWLGPFDYWGQGTLVTVSSGGGIEGRGGGDKTHTCPPCPAPELLGGPSVFLFPPKPKDTLMISRTPEVTCVVVDVSHEDPEVKFNWYVDGVEVHNAKTKPREEQYQSTYRVVSVLTVLHQDWLNGKEYKCKVSNKALPAPIEKTISKAKGQPREPQVYTLPPSRDELTKNQVKLTCLVKGFYPSDIAVEWESNGQPENNYKTTPPVLDSDGSFFLYSLLTVDKSRWQQGNVFSCSVMHEALHNHYTQKSLSLSPG
light: ELVMTQSPSSLTVTAGEKVTMSCKSSQSLLNSGNQKNYLTWYQQKPGQPPKLLIYWASTRESGVPDRFTGSGSGTDFTLTISSVQAEDLAVYYCQNDYSYPLTFGCGTKLEIKGGGGSGGGGSQAVVTQEPSLTVSPGGTVTLTCRSSTGAVTASNYANWVQQKPGQAPRGLIGGTNKRAPWTPARFSGSLLGGKAALTITGAQAEDEADYYCALWYSNLWVFGGGTKLTVLGGGIEGRGGGDKTHTCPPCPAPELLGGPSVFLFPPKPKDTLMISRTPEVTCVVVDVSHEDPEVKFNWYVDGVEVHNAKTKPREEQYQSTYRVVSVLTVLHQDWLNGKEYKCKVSNKALPAPIEKTISKAKGQPREPQVYTLPPSRDELTKNQVSLTCLVSGFYPSDIAVEWESNGQPENNYKTTPPVLDSDGSFKLYSKLTVDKSRWQQGNVFSCSVMHEALHNHYTQKSLSLSPG
notes: The anti-EpCAM targeting moiety is a disulfide-stabilized Fv (Cys at VH 44 and VL 100, Kabat); hetero-Fc dimerization domain; also called dsFv Ipilimumab VH SP34 VL Fc

How the values were obtained:
[1] = target: T3, CTLA-4 Fc-fusion protein (murine IgG2a Fc) (murine, UniProt P16410 36-161 (human entry), limits assumed); test: CTLA-4 bridging ELISA on coated EpCAM, CTLA-4-Fc detected with anti-mouse Fc
T3 construct: Soluble antigen of the bridging ELISA; not shown: murine IgG2a Fc
Experimental: (§1) To test the domain swap and generation of functional paratopes (i.e., paired VH/VL domains) by TWICE pairs, a bridging ELISA assay was developed that measures the ability of TWICE pairs to bind target antigen and immune cell engaging molecules simultaneously. The schematic drawing in FIG. 9A illustrates the principle of this bridging ELISA. Briefly, the ELISA plates are coated with target antigen (recombinant soluble EpCAM, black hexagon) at a concentration of 5 μg/ml overnight. TWICE molecules can be activated by cleavage with FXa as described above, and then added to the plate at a serial dilution. The TWICE can bind to the target antigen with their target binding moiety, which is drawn as Fab (4 grey ovals) in FIG. 9A. Binding to the target antigen (EpCAM) on the plate brings the TWICEs in close proximity, which allows the immune cell binding domain and the complementary binding domain to undergo domain swap and form complete immune cell binding paratopes (black and white ovals in FIG. 9A). The functional complementation is measured by incubation with an antigen that is bound by the immune cell binding domain, such as CD3 (striped triangle in FIG. 9A). The antigen is provided as an Fc-fusion protein (murine IgG2a Fc), and can therefore be detected with an anti-mouse Fc secondary antibody. […]

[2] = target: T1, Recombinant soluble EpCAM-His6 protein; test: ELISA on coated EpCAM-His6
Excerpt: TWICE molecules were engineered with the CD3 antibody SP34 and the CTLA4 antibody Ipilimumab and containing the hetero-Fc dimerization domain. In some examples, the anti-EpCAM antibody Solitomab was used as a Fab (TWICE277 and TWICE278), in other examples this antibody was used as a disulfide-stabilized Fv (dsFv, TWICE332 and TWICE335) by engineering a disulfide between the residue 44 of the VH and residue 100 of the VL (referring to Kabat numbering). The TWICE molecules were expressed and purified by Protein A affinity chromatography as described above, and their ability to bind to EpCAM was tested in an ELISA binding assay. Recombinant soluble EpCAM-His6 protein (produced in-house) was coated on ELISA plates at 5 μg/ml at 4° C. overnight and plates blocked with 1% BSA in PBS. Serial dilutions of TWICE were allowed to bind to EpCAM, and the bound TWICE were detected with a mouse anti-human Fc secondary (JDC-10 Abcam, ab99759).

[3] = target: B2; test: CD3 bridging ELISA on coated EpCAM, CD3-Fc detected with anti-mouse Fc
Experimental: as §1

[4] = target: T2, Recombinant soluble EpCAM-His6 protein; test: ELISA
[5] = target: T4, TWICE277 plus TWICE278, combined, not cleaved; test: CD3 bridging ELISA on coated EpCAM
T4 construct: Two-component pair with intact hetero-Fc dimerization domains
Experimental: as §1

T3 sequence (P16410 36-161 limits assumed): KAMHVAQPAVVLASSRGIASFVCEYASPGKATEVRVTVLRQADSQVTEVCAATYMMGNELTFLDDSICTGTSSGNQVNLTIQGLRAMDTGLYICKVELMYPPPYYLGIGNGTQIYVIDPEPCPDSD

Binder | binding result [1] | binding result [2] | binding result [3] | EC50 [4] [nM] | binding result [5]
B1 | no binding | binds | no binding | 1.21 | 
B2 |  |  |  |  | no binding
B3 |  | binds |  | 1.04 | 
